Assay [1] deals with T1, cynomolgus CD47 protein (cynomolgus monkey, UniProt A0A2K5X523 19-139).
T1 construct: also called cyCD47; Cyno CD47
The assay is described as follows: KD; method not stated.

In assay [2] the target is T1, cynomolgus CD47 protein. The assay is described as follows: KD; method not stated. This is another data set of the same source.
Assay [3] has as its target T1, cynomolgus CD47 protein. The assay can be described thus: half-life of the complex; method not stated.
Assay [4] addresses T2, mouse CD47 protein (mouse, UniProt Q61735 19-140, limits assumed).
T2 sequence (looked up): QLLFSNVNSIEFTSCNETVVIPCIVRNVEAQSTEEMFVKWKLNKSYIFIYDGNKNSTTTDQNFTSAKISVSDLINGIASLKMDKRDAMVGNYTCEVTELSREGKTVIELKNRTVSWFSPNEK
The assay can be described thus: column 'Cross-react with mouse'; method not stated.

The target in assay [5] is T3, human CD47 protein (human, UniProt Q08722 19-139, limits assumed).
T3 construct: Soluble protein used for the KD measurements; construct not described; also called hCD47; CD47 (human)
The assay is described as follows: KD; method not stated.

Assay [6] addresses T1, cynomolgus CD47 protein. The assay is described as follows: KD; method not stated. This is another data set of the same source.
Assay [7] has as its target T3, human CD47 protein. The assay is described as follows: half-life of the complex; method not stated.
The target in assay [8] is T1, cynomolgus CD47 protein. The assay can be described thus: half-life of the complex; method not stated. This is another data set of the same source.
In assay [9] the target is T4, human CD47 on the cell surface (human).
T4 construct: whole, on cells; also called CHO-hCD47; CD47 on HT1080 tumor cells
The assay is described as follows: flow cytometry, CHO cells stably overexpressing human CD47; positive control.

Read-outs that look alike come from different tables or passages of the source. Some results are limits rather than exact numbers.

T3 sequence (Q08722 19-139 limits assumed): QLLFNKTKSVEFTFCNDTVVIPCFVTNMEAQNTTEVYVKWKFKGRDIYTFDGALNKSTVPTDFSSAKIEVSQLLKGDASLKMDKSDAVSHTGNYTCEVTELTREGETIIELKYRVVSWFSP

B1: CD47_P01A11_parent (antibody, V domains shown)
VH: QVQLVQSGAEVKKPGSSVKVSCKASGYTFTNYAISWVRQAPGQGLEWMGGISPLFGTANYAQKFQGRVTITADESTSTAYMELSSLRSEDTAVYYCARDGGRSSDVGWYVGAMDVWGQGTLVTVSS
VL: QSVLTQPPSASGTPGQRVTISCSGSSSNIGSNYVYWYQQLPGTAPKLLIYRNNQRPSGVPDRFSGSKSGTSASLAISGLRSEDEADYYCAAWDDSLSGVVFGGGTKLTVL
notes: also called P01A11_wt
Take B1: the Kd was 1.02 nM in [1], 1.3 nM in assay [2] and more than 6800 nM in [4]. In addition, in assay [3], the T1/2 amounted to 1270 s.

B2: CD47_P01A11_75 (antibody, V domains shown)
VH: QVQLVQSGAEVKKPGSSVKVSCKASGYTFSSYAISWVRQAPGQGLEWMGGISPIFGTANYAQKFQGRVTITADESTSTAYMELSSLRSEDTAVYYCARDAGRSSDVGWYVGAIDVWGQGTLVTVSS
VL: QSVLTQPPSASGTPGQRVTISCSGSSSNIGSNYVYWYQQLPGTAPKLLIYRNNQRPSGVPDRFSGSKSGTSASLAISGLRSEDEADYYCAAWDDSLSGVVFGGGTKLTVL
notes: Monospecific antibody; also called anti-CD47 antibody P01A11_75
For the molecule B2, the values for the Kd in assay [5] and in assay [6] were 75 nM and 105 nM, respectively. Besides, the T1/2 in assay [7] is 29.4 s; in assay [8], 28.8 s. Besides, the EC50 in assay [9] is 0.98 nM.

The record behind these values is patent publication US20210179716A1 (Pfizer, published 2021).
